# Source: paper PMC4081127
# Substrate: C[C@@](O)(CCO)CC(=O)O
# Assay: purified protein
# Conditions: pH 8.5; 55.0 °C
protein,measurement,value
Ta1305 (mevalonate-3-kinase) (Thermoplasma acidophilum DSM 1728) (protein) MTYRSIGSTAYPTIGVVLLGGIANPVTRTPLHTSAGIAYSDSCGSIRSETRIYADEATHIYFNGTESTDDNRSVRRVLDRYSSVFEEAFGTKTVSYSSQNFGILSGSSDAGAASIGAAILGLKPDLDPHDVENDLRAVSESAGRSLFGGLTITWSDGFHAYTEKILDPEAFSGYSIVAFAFDYQRNPSDVIHQNIVRSDLYPARKKHADEHAHMIKEYAKTNDIKGIFDLAQEDTEEYHSILRGVGVNVIRENMQKLISYLKLIRKDYWNAYIVTGGSNVYVAVESENADRLFSIENTFGSKKKMLRIVGGAWHRRPE,Km,97 ± 6 µM
